Data published in the supplement of paper PMC7877785.
± gives the uncertainty stated by the source.

Assay: self-splicing fitness, log relative to wild type (ln ratio); higher = more splicing; Tetrahymena group I intron in knt gene, E. coli kanamycin selection, DiMSum; sequences stand for … in CUCUCU…GGAGGGAAAAGUUAUCAGGCAUGCACCUGGUAGCUAGUCUUUAAACCAAUAGAUUGCAUCGGUUUAAAAGGCAAGACCGUCAAAUUGCGGGAAAGGGGUCAACAGCCGUUCAGUACCAAGUCUCAGGGGAAACUUUGAGAUGGCCUUGCAAAGGGUAUGGUAAUAAGCUGACGGACAUGGUCCUAACCACGCAGCCAAGUCCUAAGUCAACAGAUCUUCUGUUGAUAUGGAUGCAGUUCACAGACUAAAUGUCGGUCGGGGAAGAUGUAUUCUUCUCAUAAGAUAUAGUCGGACCUCUCCUUAAUGGGAGCUAGCGGAUGAAGUGAUGCAACACUGGAGCCGCUGGGAACUAAUUUGUAUGCGAAAGUAUAUUGAUUAGUUUUGGAGUACUCGUGGUCG
In short: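 Library with all eight P1ex-region intron nucleotides randomised, intron inside the knt kanamycin-resistance gene on pET-22b(+), in E. coli BL21(DE3). Cells grew overnight at 37°C or 30°C on LB agar with or without 25 μg/mL kanamycin (plus 100 μg/mL carbenicillin, 50 μM IPTG, 0.2% rhamnose), in six replicate transformations. Pooled colonies were amplicon-sequenced on Illumina HiSeq 2500. DiMSum fitness is the error-weighted combination of wild-type-normalised replicate fold changes, kanamycin versus none.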

| Sequence | self-splicing fitness (ln) (30 °C) | self-splicing fitness (ln) (37 °C) |
| --- | --- | --- |
| GGGCAGCAAUAUUACGUUAG | -1.81 ± 0.093 | -0.462 ± 0.13 |
| GGGCAGCAAUAUUACGUUAU | -1.68 ± 0.097 | -0.345 ± 0.12 |
| GGGCAGCAAUAUUACGUUCA | -0.593 ± 0.075 | -0.158 ± 0.12 |
| GGGGAGCAAUAUUACGAAAG | -3.12 ± 0.44 | – |
| GGGGAGCAAUAUUACGAAUU | -1.24 ± 0.19 | -0.992 ± 0.25 |
| GGGGAGCAAUAUUACGACUA | -0.712 ± 0.24 | -0.539 ± 0.29 |
| GGGGAGCAAUAUUACGAUCA | -1.45 ± 0.18 | -0.807 ± 0.19 |
| GGGGAGCAAUAUUACGCACU | -3.29 ± 0.36 | – |
| GGGGAGCAAUAUUACGCCUG | -2.33 ± 0.15 | -0.491 ± 0.13 |
| GGGGAGCAAUAUUACGCGAG | -1.54 ± 0.43 | -0.692 ± 0.24 |
| GGGGAGCAAUAUUACGGACG | -2.73 ± 0.32 | -1.21 ± 0.28 |
| GGGGAGCAAUAUUACGGAGC | -2.66 ± 0.33 | -1.79 ± 0.2 |
| GGGGAGCAAUAUUACGGAGG | – | -1.4 ± 0.35 |
| GGGGAGCAAUAUUACGGAUU | -3.35 ± 0.28 | -2.15 ± 0.23 |
| GGGGAGCAAUAUUACGGCUC | – | -0.173 ± 0.34 |
| GGGGAGCAAUAUUACGGUGA | -2.23 ± 0.36 | – |
| GGGGAGCAAUAUUACGGUGG | -3.04 ± 0.25 | -2.67 ± 0.24 |
| GGGGAGCAAUAUUACGGUGU | -3.87 ± 0.37 | -1.37 ± 0.22 |
| GGGGAGCAAUAUUACGUGUA | -3.7 ± 0.31 | -2.23 ± 0.22 |
| GGGGAGCAAUAUUACGUUAU | -3.58 ± 0.18 | -2.14 ± 0.16 |
| GGGUAGCAAUAUUACGAAUG | -2.18 ± 0.25 | -1.32 ± 0.4 |
| GGGUAGCAAUAUUACGACCG | -1.03 ± 0.18 | -0.642 ± 0.33 |
| GGGUAGCAAUAUUACGAGCU | -0.974 ± 0.17 | -1.33 ± 0.19 |
| GGGUAGCAAUAUUACGAGGG | -3.42 ± 0.33 | -2.55 ± 0.33 |
| GGGUAGCAAUAUUACGAUAA | -1.67 ± 0.13 | 0.147 ± 0.16 |
| GGGUAGCAAUAUUACGAUCC | -2.2 ± 0.37 | -1.47 ± 0.5 |

| Sequence | self-splicing fitness (ln) (30 °C) | self-splicing fitness (ln) (37 °C) |
| --- | --- | --- |
| GGGUAGCAAUAUUACGAUGU | -0.794 ± 0.1 | 0.357 ± 0.15 |
| GGGUAGCAAUAUUACGCAGU | -1.34 ± 0.16 | -1.02 ± 0.11 |
| GGGUAGCAAUAUUACGCAUU | -0.339 ± 0.094 | -0.245 ± 0.1 |
| GGGUAGCAAUAUUACGCCAC | – | -1.72 ± 0.48 |
| GGGUAGCAAUAUUACGCGAA | -0.995 ± 0.16 | -0.21 ± 0.13 |
| GGGUAGCAAUAUUACGGAGU | -2.36 ± 0.22 | -1.21 ± 0.2 |
| GGGUAGCAAUAUUACGGAUA | -1.74 ± 0.25 | -1.08 ± 0.29 |
| GGGUAGCAAUAUUACGGCAC | -0.322 ± 0.14 | -0.0485 ± 0.18 |
| GGGUAGCAAUAUUACGGCAG | -3.66 ± 0.4 | -2.62 ± 0.4 |
| GGGUAGCAAUAUUACGGGCA | -0.435 ± 0.25 | -0.58 ± 0.26 |
| GGGUAGCAAUAUUACGGUAG | – | -1.91 ± 0.23 |
| GGGUAGCAAUAUUACGGUCU | -0.845 ± 0.08 | -0.011 ± 0.11 |
| GGGUAGCAAUAUUACGUAGG | -2.74 ± 0.24 | -1.5 ± 0.2 |
| GGGUAGCAAUAUUACGUCCG | -0.212 ± 0.15 | -0.15 ± 0.19 |
| GGGUAGCAAUAUUACGUGCC | -0.954 ± 0.48 | – |
| GGGUAGCAAUAUUACGUGGG | -4.13 ± 0.32 | -2.29 ± 0.19 |
| GGGUAGCAAUAUUACGUGUC | -2.16 ± 0.18 | -0.684 ± 0.15 |
| GGGUAGCAAUAUUACGUUAC | – | -4.17 ± 0.46 |
| GGGUAGCAAUAUUACGUUCG | -0.742 ± 0.065 | 0.339 ± 0.086 |
| GGUAAGCAAUAUUACGAACA | -0.0165 ± 0.19 | -0.383 ± 0.18 |
| GGUAAGCAAUAUUACGAACG | -0.0623 ± 0.11 | -0.0489 ± 0.12 |
| GGUAAGCAAUAUUACGAACU | -1.25 ± 0.25 | -1.67 ± 0.36 |
| GGUAAGCAAUAUUACGACGA | -0.849 ± 0.098 | 0.225 ± 0.098 |
| GGUAAGCAAUAUUACGAGGA | – | -1.84 ± 0.45 |
| GGUAAGCAAUAUUACGAGUU | -1.56 ± 0.097 | -0.413 ± 0.12 |
| GGUAAGCAAUAUUACGAUAC | -0.265 ± 0.12 | -0.608 ± 0.16 |

| Sequence | self-splicing fitness (ln) (30 °C) | self-splicing fitness (ln) (37 °C) |
| --- | --- | --- |
| GGUAAGCAAUAUUACGCAGA | – | -1.84 ± 0.47 |
| GGUAAGCAAUAUUACGCAGG | -2.05 ± 0.16 | -1.29 ± 0.15 |
| GGUAAGCAAUAUUACGCGAA | -1.27 ± 0.15 | -1.15 ± 0.16 |
| GGUAAGCAAUAUUACGGACC | -0.973 ± 0.43 | – |
| GGUAAGCAAUAUUACGGAUG | -3.57 ± 0.34 | -2.09 ± 0.18 |
| GGUAAGCAAUAUUACGGCGC | 0.369 ± 0.14 | 0.841 ± 0.18 |
| GGUAAGCAAUAUUACGGGAA | -2.54 ± 0.39 | -2.06 ± 0.32 |
| GGUAAGCAAUAUUACGGGAC | -2.69 ± 0.29 | -1.27 ± 0.2 |
| GGUAAGCAAUAUUACGGGAG | – | -2.88 ± 0.34 |
| GGUAAGCAAUAUUACGGGCA | -0.438 ± 0.082 | 0.103 ± 0.1 |
| GGUAAGCAAUAUUACGGUCG | -0.945 ± 0.066 | -0.215 ± 0.1 |
| GGUAAGCAAUAUUACGUACG | -0.395 ± 0.11 | -0.415 ± 0.12 |
| GGUAAGCAAUAUUACGUCGA | – | -0.708 ± 0.25 |
| GGUAAGCAAUAUUACGUGAU | -1.64 ± 0.099 | -1.68 ± 0.12 |
| GGUAAGCAAUAUUACGUUUG | – | -2.56 ± 0.21 |
| GGUCAGCAAUAUUACGAAGU | -0.729 ± 0.076 | -0.336 ± 0.1 |
| GGUCAGCAAUAUUACGAGAA | -1.23 ± 0.47 | -2.01 ± 0.38 |
| GGUCAGCAAUAUUACGAUCC | – | -0.912 ± 0.18 |
| GGUCAGCAAUAUUACGAUCU | -1.8 ± 0.17 | -1.93 ± 0.24 |
| GGUCAGCAAUAUUACGCCAA | -1.17 ± 0.25 | -2.06 ± 0.22 |
| GGUCAGCAAUAUUACGCCGA | – | -2.65 ± 0.48 |
| GGUCAGCAAUAUUACGCUGU | -3.34 ± 0.21 | -1.62 ± 0.18 |
| GGUCAGCAAUAUUACGGAAG | -2.27 ± 0.2 | -1.58 ± 0.23 |
| GGUCAGCAAUAUUACGGACG | -0.915 ± 0.11 | 0.0247 ± 0.16 |
| GGUCAGCAAUAUUACGGCCA | -2.33 ± 0.19 | -0.589 ± 0.17 |
| GGUCAGCAAUAUUACGGUUU | -0.421 ± 0.074 | 0.264 ± 0.099 |

| Sequence | self-splicing fitness (ln) (30 °C) | self-splicing fitness (ln) (37 °C) |
| --- | --- | --- |
| GGUCAGCAAUAUUACGUAAA | 0.301 ± 0.14 | 0.672 ± 0.18 |
| GGUCAGCAAUAUUACGUAAU | -0.42 ± 0.11 | 0.68 ± 0.14 |
| GGUCAGCAAUAUUACGUAGA | -0.689 ± 0.081 | -0.164 ± 0.096 |
| GGUCAGCAAUAUUACGUAGG | -2.33 ± 0.15 | -1.84 ± 0.18 |
| GGUCAGCAAUAUUACGUCUU | 0.322 ± 0.078 | 0.402 ± 0.089 |
| GGUCAGCAAUAUUACGUUAU | -0.97 ± 0.092 | -0.158 ± 0.1 |
| GGUCAGCAAUAUUACGUUUC | 0.000828 ± 0.13 | -0.437 ± 0.14 |
| GGUGAGCAAUAUUACGAAAC | -2.41 ± 0.24 | -1.02 ± 0.27 |
| GGUGAGCAAUAUUACGAGGU | -2.22 ± 0.29 | -1.68 ± 0.27 |
| GGUGAGCAAUAUUACGAUAU | -2.31 ± 0.2 | -1.83 ± 0.23 |
| GGUGAGCAAUAUUACGAUCA | -1.24 ± 0.13 | -0.356 ± 0.15 |
| GGUGAGCAAUAUUACGCAUG | -1.48 ± 0.11 | -0.697 ± 0.15 |
| GGUGAGCAAUAUUACGCAUU | -1.28 ± 0.25 | -1.89 ± 0.34 |
| GGUGAGCAAUAUUACGCGAU | -3.7 ± 0.46 | – |
| GGUGAGCAAUAUUACGCUAG | – | -1.65 ± 0.45 |
| GGUGAGCAAUAUUACGCUCG | – | -1.37 ± 0.4 |
| GGUGAGCAAUAUUACGCUGG | -2.87 ± 0.19 | -1.12 ± 0.16 |
| GGUGAGCAAUAUUACGCUGU | -3.68 ± 0.34 | -1.64 ± 0.27 |
| GGUGAGCAAUAUUACGGACA | -1.48 ± 0.17 | -0.688 ± 0.16 |
| GGUGAGCAAUAUUACGGCGA | -1.1 ± 0.12 | -1.39 ± 0.14 |
| GGUGAGCAAUAUUACGGCGG | -3.44 ± 0.23 | -1.73 ± 0.35 |
| GGUGAGCAAUAUUACGGGAA | -1.89 ± 0.3 | -2.5 ± 0.48 |
| GGUGAGCAAUAUUACGUAAA | -2.79 ± 0.3 | -1.45 ± 0.31 |
